Reference: US20220177589A1 (OXFORD UNIVERSITY INNOVATION, published 2022)

T1: full length cynomolgus BTLA expressed in a Jurkat T cell line (cynomolgus monkey, UniProt Q7Z6A9 31-289 (human entry))
T1 chain: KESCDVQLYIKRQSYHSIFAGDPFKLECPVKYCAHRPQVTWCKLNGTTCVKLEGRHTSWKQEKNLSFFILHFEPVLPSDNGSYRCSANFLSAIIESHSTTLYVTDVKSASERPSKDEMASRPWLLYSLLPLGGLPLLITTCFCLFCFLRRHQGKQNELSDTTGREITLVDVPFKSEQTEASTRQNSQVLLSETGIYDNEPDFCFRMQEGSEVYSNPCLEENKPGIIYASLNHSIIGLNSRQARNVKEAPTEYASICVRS


How the values were obtained:
Test in all cases: cell-based or functional assay
[1] = biological target: full length human BTLA expressed in a Jurkat T cell line (human, UniProt Q7Z6A9 31-289)
[2] = biological target: T2, chimeric BTLA of humanised-BTLA mice (human extracellular region, murine transmembrane and signaling … (human; mouse, UniProt Q7TSA3 184-306, limits assumed)
[3] = biological target: T1, full length cynomolgus BTLA expressed …
[4] = biological target: T2, chimeric BTLA of humanised-BTLA mice …; remark: listed apart in the source

T2 sequence (Q7TSA3 other isoform, or with tags, fused parts or gaps mutant limits assumed): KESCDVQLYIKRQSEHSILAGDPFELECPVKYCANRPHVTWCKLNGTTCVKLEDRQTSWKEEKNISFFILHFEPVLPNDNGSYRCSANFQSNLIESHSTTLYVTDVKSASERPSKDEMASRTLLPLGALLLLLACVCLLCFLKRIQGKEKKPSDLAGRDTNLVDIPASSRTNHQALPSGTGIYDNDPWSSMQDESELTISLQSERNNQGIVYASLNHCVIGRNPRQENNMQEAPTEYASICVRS

| Binder | T cell reporter (NFkB signaling), % inhibition [1] [%] | AntiCD3/CD28 (CD4 T cell proliferation) repeat 1, % inhibition [2] [%] | AntiCD3/CD28 (CD4 T cell proliferation) repeat 2, % inhibition [2] [%] | AntiCD3/CD28 (CD69+ CD4 T cells) repeat 1, % inhibition [2] [%] | AntiCD3/CD28 (CD69+ CD4 T cells) repeat 2, % inhibition [2] [%] | MLR (CD4 T cell proliferation) repeat 1, % inhibition [2] [%] | MLR (CD4 T cell proliferation) repeat 2, % inhibition [2] [%] | IC50, inhibition of NFkB-GFP reporter in BTLA transfected Jurkat cells [3] [nM] | IC50, inhibition of CD4 T cell proliferation in a mixed lymphocyte reaction [4] [nM] |
| --- | --- | --- | --- | --- | --- | --- | --- | --- | --- |
| 3A9 (antibody, IgG1, V domains shown) VH: QVQLKQSGAELVRPGASVKLSCKASGYTFTDYYINWVKQRPGQGLEWIARIYPGSGNTYYNEKFKGKATLTAEKSSSTAYMQLSSLTSEDSAVYFCARGYGNSDYWGQGTTLTVSS VL: DILLTQSPAILSVSPGERVSFSCRASQSIGTRIHWYQQRTNGSPRLLIKYASESISGIPSRFSGSGSGTDFTLSINSVESEDIADYYCQQSNSWPYTFGGGTKLEIK | 27 | 9 | 9 | 22 | 34 | 7 | 24 | – | – |
| 6.2 (antibody, IgG1, V domains shown) VH: EVKLVESGGGLVKPGGSLKLSCAASGFTLSSYGMSWVRQIPEKRLEWVASIRSDGNTYYPDSVKGRFIISRDNARNILYLQMSSLRSEDTAMYYCTRGGYYGSSPYYWGQGTTLTVSS VL: DIVMSQSPSSLPVSVGEKISMTCKSSQSLLYSSNQKNYLAWYQQKPGQSPKLLIYWASTRDSGVPDRFIGSGSGTDFTLTINSVKAEDLAVYYCQQYYNYLTFGAGTKLELK | 26 | 19 | 21 | 53 | 61 | 31 | 35 | – | – |
| 11.5.1 (antibody, IgG1, V domains shown) VH: EVQLQESGPSLVKPSQTLSLTCSVTGDSITSAYWNWIRKFPGNKLEYMGYISYSGSTYFNPSLKSRISITRNTSKNQYYLQLNSVTTEDTATYYCARSHYYGYYFDYWGHGTTLTVSS VL: DIVLTQSPASLAVSLGQRATISCRASETIDSYGDSLMHWYQQKAGQPPKLLIYRASNLESGIPARFSGSGSRTDFTLTINPVEADDVATYYCQQTDEDPYTFGGGTKLEIK | – | 21 | 28 | 50 | 47 | 23 | 18 | 0.14 | 0.016 |
| 4H4 (antibody, IgG1, V domains shown) VH: QVQLQQSGAELARPGASVKLSCKASGYTFTSYGISWVKQRTGQGLEWIGEIYPRSGNTYYNEKFKGKATLTADKSSSTAYMELRSLTSEDSAVYFCARRRGAGDGFDYWGQGTTLTVSS VL: DIQMTQTTSSLSASLGDRVTISCSASQGISNYLNWYQQKPDGTVKLLIYYTSSLHSGVPSRFSGSGSGTDYSLTISNLEPEDIATYYCQQYSKLPFTFGSGTKLEIK | 25 | 14 | 22 | 43 | 52 | 10 | 17 | – | – |
| 4B1 (antibody, IgG1, V domains shown) VH: QVQLQQSGAELARPGASVRLSCKASGYTFTSYGLIWLKQRTGQGLEWIGEIYPRSGSTYYNEWFKGKATLTADKSSNTAFMELRSLTSEDSAVYFCARRRGTGDGFDYWGQGTILTVSS VL: DIQMTQTTSSLSASLGDRVTISCSASQGISNYLNWYQQKPDGTVKLLIYYTSSLHSGVPSRFSGSGSGTDYSLTISNLEPEDIATYYCQQYIELPFTFGSGTKLEIK | 23 | 14 | 18 | 47 | 41 | 33 | 30 | – | – |
| 8B4 (antibody, IgG1, V domains shown) VH: QVQLQQSGAELARPGASVKLPCKASGYTFTSYGISWVKQRTGQGLEWIGEIYPRSGTTYYNEKFKGKATLTADKSSSTAYMELRSLTSEDSAVYFCARRISSGSGVDYWGQGTTLTVSS VL: DIQMTQTTSSLSASLGDRVTISCSASQGISNYLNWYQQKPDGTVKLLIYYTSSLHSGVPSRFSGSGSGTDYSLTISNLEPEDIATYYCQQYSELPWTFGGGTKLEIK | 24 | 20 | 4 | 51 | 47 | 33 | 23 | – | – |
| 2.8.6 (antibody, IgG1, V domains shown) VH: QVQLKESGPGLVAPSQSLSITCTVSGFSLTTYGVHWVRQSPGKGLEWLGVMWPGGRTSYNPAPMSRLSISKDNSKSQVFLKMNSLQTDDTAMYYCVRGDYEYDYYAMDYWGQGTSVTVSS VL: QIVLSQSPAILSASPGEKVTMTCRASSSVSYMHWYQQKPGSSPKPWIYATSNLASGVPARFSGSGSGTSYSLTISRMEAEDAATYYCHQWSSNPYTFGGGTKLEIK | – | 23 | 35 | 58 | 67 | 30 | 36 | 0.22 | 0.029 |

Other lines, results leading:

| T cell reporter (NFkB signaling), % inhibition [1] [%] | AntiCD3/CD28 (CD4 T cell proliferation) repeat 1, % inhibition [2] [%] | AntiCD3/CD28 (CD4 T cell proliferation) repeat 2, % inhibition [2] [%] | AntiCD3/CD28 (CD69+ CD4 T cells) repeat 1, % inhibition [2] [%] | AntiCD3/CD28 (CD69+ CD4 T cells) repeat 2, % inhibition [2] [%] | MLR (CD4 T cell proliferation) repeat 1, % inhibition [2] [%] | MLR (CD4 T cell proliferation) repeat 2, % inhibition [2] [%] | IC50, inhibition of NFkB-GFP reporter in BTLA transfected Jurkat cells [3] [nM] | IC50, inhibition of CD4 T cell proliferation in a mixed lymphocyte reaction [4] [nM] | Binder |
| --- | --- | --- | --- | --- | --- | --- | --- | --- | --- |
| 23 | 10 | -4 | 39 | 35 | 8 | 17 | – | – | 21C7 (antibody, IgG1, V domains shown) VH: QIQLQQSGPELVKPGASVKISCKASGYAFSSSWMNWVKKRPGKGLEWIGRIYPGDGDANYNGKFKGKATLTADKSSSTAYMQLSSLTSEDSAVYFCAGEGHYYGSGYRWYLDVWGTGTTVTVSS VL: DIQMTQSPASLSVSVGETVTITCRASENIYSNLAWYQQKQGKSPQLLVYAATNLADGVPSRFSGSGSGTQYSLKINSLQSEDFGSYYCQHFRGAPFTFGSGTKLEIK |
| 22 | 13 | 23 | 52 | 44 | 23 | 31 | – | – | 24H7 (antibody, IgG1, V domains shown) VH: QVQLQQSGAELVRPGASVTLSCKASGYTFTDYEIHWVKQTLVHGLEWIGPIDPDTGNTAYNQNLKGKAILTADKSSSTAYMELRSLTSEDSAVYYCTRGGYDSDWGFAYWGQGTLVTVSA VL: DIVMTQATPSVPVTPGESVSISCRSSKSLLHSNGNTFLFWFLQRPGQSPQLLIYRMSDLASGVPDRFSGSGSGTAFTLRISRVEAEDVGIYYCMQHLEYPFTFGSGTKLEIK |
| 16 | 24 | 29 | 43 | 52 | 39 | 26 | – | – | 14D4 (antibody, IgG1, V domains shown) VH: QVQLQQPGAELVKPRASVKLSCKASGYTFTSYWMHWVKQRPGQGLEWIGMIHPNNGIPNYNEKFKSKATLTVDKSSTTAYMQLSSLTSEDSAVYHCAREGYYGSEGYFDVWGTGTTVTVSS VL: QIVLTQSPAIMSASPGEKVTMTCSASSSISYIHWYQQKPGTSPKRWIYDTSKLASGVPARFSGSGSGTSYSLTISSMEAEDAATYYCHQRSTYPYTFGGGTKLEIK |
| 29 | 11 | 23 | 51 | 60 | 40 | 26 | – | – | 16H2 (antibody, IgG1, V domains shown) VH: EVQLQQSGPELVQPGASVKISCKASGYTFTDYYMIWVKQSHGKSLEWIGNINPNNGGTTYNQKFKGKATLTVDKSSSTAYMGLPSLTSEDSAVYYCARGGLRPLYFDYWGQGTTLTVSS VL: NIVMTQSPKSMSMSVGERVTLSCKASENVDTYVSWYQQKPEQSPKLLIYGASNRYTGVPDRFTGSGSATDFTLTISSVQAEDLADYHCGQSYSYPLTFGAGTKLELI |
| 24 | 10 | 8 | 50 | 53 | 25 | 34 | – | – | 831 (antibody, V domains shown) VH: DVQLQESGPDLVKPSQSLSVTCTVTGYSITSGYSWHWIRQFPGNKLEWMGYIHYSGSTNYNPSLKSRISITRDTSKNQFFLQLSSVTTEDTATYYCASGPHRYDGVWFAYWGQGTLVTVSS VL: EIVLTQSPTTMAASPGEKITITCSASSSISSNYLHWYQQKPGFSPKLLIYRTSNLASGVPARFSGSGSGTSYSLTIGTMEAEDVATYYCQQGTNIPLTFGAGTKLEIK |
